Experimental findings from patent US20220332804A1 (CSL INNOVATION, published 2022) are described below.

Assay in all cases: SPR, KD relative to WT C2;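 also: biacore SPR at 37 °C, anti-C2 mAbs captured on anti-human IgG chips with alanine or serine point mutants of C2 as analyte, KD from 1:1 fit compared with wild-type C2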
On the technique in general: Surface plasmon resonance follows binding to a sensor surface in real time, without labels.

The target in test [1] is T1, human C2 Y328A (human, UniProt P06681 21-752).
T1 sequence: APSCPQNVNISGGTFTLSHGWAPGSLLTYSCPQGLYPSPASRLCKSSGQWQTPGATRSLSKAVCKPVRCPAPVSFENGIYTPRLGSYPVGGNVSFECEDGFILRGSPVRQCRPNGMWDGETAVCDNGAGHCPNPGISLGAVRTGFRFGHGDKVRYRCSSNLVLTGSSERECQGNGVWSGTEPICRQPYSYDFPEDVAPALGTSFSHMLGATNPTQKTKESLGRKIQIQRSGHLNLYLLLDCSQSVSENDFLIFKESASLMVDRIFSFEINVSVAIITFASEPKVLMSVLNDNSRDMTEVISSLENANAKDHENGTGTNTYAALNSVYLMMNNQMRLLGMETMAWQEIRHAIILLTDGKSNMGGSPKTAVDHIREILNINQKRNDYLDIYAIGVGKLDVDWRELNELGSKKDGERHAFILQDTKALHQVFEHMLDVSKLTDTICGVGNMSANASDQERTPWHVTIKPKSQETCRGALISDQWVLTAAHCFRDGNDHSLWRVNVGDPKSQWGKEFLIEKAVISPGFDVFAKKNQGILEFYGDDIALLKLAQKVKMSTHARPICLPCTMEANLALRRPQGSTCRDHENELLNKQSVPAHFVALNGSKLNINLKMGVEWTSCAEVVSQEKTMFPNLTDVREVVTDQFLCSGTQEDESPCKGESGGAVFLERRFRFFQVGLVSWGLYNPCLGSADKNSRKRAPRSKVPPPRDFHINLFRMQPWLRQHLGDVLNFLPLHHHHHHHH

Test [2] deals with T2, human C2 S473A (human, UniProt P06681 21-752).
T2 sequence: T1 sequence with A308Y, S453A

Test [3] deals with T3, human C2 L620A (human, UniProt P06681 21-752).
T3 sequence: T1 sequence with A308Y, L600A

Test [4] concerns the target T4, human C2 N325A (human, UniProt P06681 21-752).
T4 sequence: T1 sequence with N305A, A308Y

Numbering of substitutions follows the chain as printed.

B1: RF16-242 (antibody, human IgG4 S228P, lambda, V domains shown)
VH: EVQLLQSGAEVKKPGESLKISCKGSGYSFTSYWIGWVRQMPGKGLEWMGIIYPGDSDTRYSPSFQGQVTISADKSISTAYLQWSSLKASDTAMYYCARRGHYGDYFDYWGQGTLVTVSS
VL: SYELTQPPSVSVSPGQTARITCSGDALPKKYAYWYHQKSGQAPVLVIYEDRRRPSEIPERFSGSSSGTMATLTITGAQVEDEGVYFCYSRDRAGNQRVFGGGTQLTVLG
notes: pH-dependent anti-C2 antibody from a phage display library
Regarding B1, the Fold diff in test [1] was 6 fold; in test [2], 2 fold; in test [3] it was 1 fold; in test [4], 6 fold.
